Results from patent publication US20140044730A1 (Regeneron, published 2014).
Read-outs that look alike come from different tables or passages of the source.

B1: VH-D106H (antibody, V domains shown)
VH: EMQLVESGGGLVQPGGSLRLSCAASGFTFSSHWMKWVRQAPGKGLEWVANINQDGSEKYYVDSVKGRFTISRDNAKNSLFLQMNSLRAEDTAVYYCARDIVLMVYHMDYYYYGMDVWGQGTTVTVSS
VL: not shown
notes: His variant of 300N
B2: VH-D106H/VK-L30H (antibody, IgG4, V domains shown)
VH: B1 VH
VL: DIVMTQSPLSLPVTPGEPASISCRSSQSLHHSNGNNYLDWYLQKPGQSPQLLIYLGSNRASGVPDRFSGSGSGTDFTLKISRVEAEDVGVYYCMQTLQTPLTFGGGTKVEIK
notes: double His variant of 300N; also called VH-D106/VK-L30H; VH-D016H/VK-L30H
B3: 316P(v1) (antibody, IgG1, V domains shown)
VH: EVQLVESGGGLVQPGGSLRLSCAASGFTFNNYAMNWVRQAPGKGLDWVSTISGSGGTTNYADSVKGRFIISRDSSKHTLYLQMNSLRAEDTAVYYCAKDSNWGNFDLWGRGTLVTVSS
VL: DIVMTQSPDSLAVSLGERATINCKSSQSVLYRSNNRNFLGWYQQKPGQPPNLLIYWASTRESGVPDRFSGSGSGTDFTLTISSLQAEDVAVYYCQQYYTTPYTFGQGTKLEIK
notes: also called 316(v1)

Assays:
[1] = target: T1, human PCSK9 with a C-terminal myc-myc-hexahistidine tag (human, UniProt Q8NBP7 31-692, limits assumed); test: blocking ELISA pH 7.2, 500 pM hPCSK9-mmH vs coated hLDLR EGFA-hFc, exp #2
T1 construct: also called hPCSK9-mmH; hPCSK9-mmh; not shown: C-terminal myc-myc-hexahistidine tag

[2] = target: T1, human PCSK9 with a C-terminal …; test: SPR 25C pH 5.75, mAb captured;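 note: biacore surface with anti-human Fc antibody capturing the antibodies, PCSK9 as analyte, one-to-one kinetic fit, KD as kd over ka, half-life derived from kd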
Method: (§1) A Biacore CM4 sensor chip was derivatized with a monoclonal mouse anti-human Fc antibody to capture human antibodies. The histidine substitution variant anti-PCSK9 antibodies were captured onto the anti-human Fc sensor surface from culture medium after transient expression in Chinese hamster ovary (CHO) cells. […] Kinetic association (kₐ) and dissociation (kd) rate constants were determined by processing and fitting the data to a 1:1 binding model using Scrubber 2.0 curve fitting software. Binding dissociation equilibrium constants (KD) and dissociative half-lives (t_{1/2}) were calculated from the kinetic rate constants as: KD (M)=kd/kₐ; and t_{1/2} (min)=(In2/(60*kd).

[3] = target: T1, human PCSK9 with a C-terminal …; test: blocking ELISA pH 5.75, 500 pM hPCSK9-mmH vs coated hLDLR EGFA-hFc
Method: (§2) Briefly, hLDLR EGFA-hFc was coated at 2 μg/mL in PBS on a 96-well microtiter plate overnight at 4° C. followed by blocking with a solution of 0.5% (w/v) BSA in PBS.
(§3) The equilibrated sample solutions were then transferred to a LDLR EGFA-hFc coated plate.

[4] = target: T1, human PCSK9 with a C-terminal …; test: blocking ELISA pH 7.2, 500 pM hPCSK9-mmH vs coated hLDLR EGFA-hFc
Method: as §2, §3

[5] = target: T1, human PCSK9 with a C-terminal …; test: SPR 25C pH 7.4, purified mAb captured
Method: as §1
All measurements were taken at 25° C.

[6] = target: T1, human PCSK9 with a C-terminal …; test: SPR 25C pH 7.2, mAb captured;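 note: biacore SPR, antibodies captured on anti-human Fc CM4 chip with PCSK9 flowed as analyte, rate constants from a one-to-one kinetic fit, KD and half-life derived from them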
[7] = target: T1, human PCSK9 with a C-terminal …; test: SPR (Biacore), 37 °C; antibody captured on anti-human Fc surface, hPCSK9-mmH injected (3.125-50 nM); association at pH 7.4, dissociation at pH 6.0
Method: (§4) All experiments were carried out at 37° C.
(§5) A Biacore CM4 sensor chip was derivatized with a Fab′2 polyclonal anti-human Fc antibody to capture human antibodies. […] Dissociation (kd) rate constants were determined by processing and fitting the data using Scrubber version 2.0 curve fitting software. Dissociative half-lives (t_{1/2}) were calculated from the dissociation rate constants as: t_{1/2} (min)=(In2/kd)/60.

[8] = target: T1, human PCSK9 with a C-terminal …; test: SPR (Biacore), 37 °C; antibody captured on anti-human Fc surface, hPCSK9-mmH injected (3.125-50 nM); association at pH 7.4, dissociation at pH 7.4
Method: as §4, §5

[9] = target: T1, human PCSK9 with a C-terminal …; test: SPR (Biacore), 37 °C; antibody captured on anti-human Fc surface, hPCSK9-mmH injected (3.125-50 nM); association at pH 7.4, dissociation at pH 5.75
Method: as §4, §5

[10] = target: T1, human PCSK9 with a C-terminal …; test: SPR 25C pH 6.0, purified mAb captured
Method: as §1
(§6) Also included in these experiments were several control/comparator antibodies. All measurements were taken at 25° C.

[11] = target: T1, human PCSK9 with a C-terminal …; test: blocking ELISA pH 7.2, 500 pM hPCSK9-mmH vs coated hLDLR EGFA-hFc, exp #1
From the text: The equilibrated sample solutions were then transferred to the LDLR EGFA-hFc coated plate prepared as described above.

[12] = target: T2, recombinant cynomolgus monkey PCSK9 with a C-terminal myc-myc hexahistidine tag (cynomolgus monkey, UniProt A8T662 31-692 (Macaca nemestrina entry), limits assumed); test: cell-based or functional assay
[13] = target: T3, human PCSK9 with a C-terminal myc-myc hexahistidine tag and a D374Y mutation (human, UniProt Q8NBP7 31-692, limits assumed); test: cell-based or functional assay
[14] = target: T1, human PCSK9 with a C-terminal …; test: SPR 25C pH 7.2, mAb captured; pH 7.2, 25 C;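 for t½: biacore SPR, antibodies captured on anti-human Fc CM4 chip with PCSK9 flowed as analyte, rate constants from a one-to-one kinetic fit, KD and half-life derived from them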
Method: as §1

[15] = target: T1, human PCSK9 with a C-terminal …; test: blocking ELISA, hPCSK9-mmH vs coated hLDLR EGFA-hFc
Method: as §2, §3

[16] = target: T1, human PCSK9 with a C-terminal …; test: SPR 25C, purified mAb captured
Method: as §1, §6

[17] = target: T1, human PCSK9 with a C-terminal …; test: SPR (Biacore), 37 °C; antibody captured on anti-human Fc surface, hPCSK9-mmH injected (3.125-50 nM); association at pH 7.4, dissociation at pH 7.2
Method: as §5

[18] = target: T1, human PCSK9 with a C-terminal …; test: cell-based or functional assay
[19] = target: T1, human PCSK9 with a C-terminal …; test: SPR 25C, mAb captured;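 note: biacore CM4 surface bearing anti-human Fc antibody capturing the mAbs, PCSK9 binding and release rates fitted with a one-to-one model, KD and half-life derived from those rates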
[20] = target: T1, human PCSK9 with a C-terminal …; test: SPR (Biacore), 37 °C; antibody captured on anti-human Fc surface, hPCSK9-mmH injected (3.125-50 nM); association at pH 7.4, dissociation at pH 5.75; remark: listed apart in the source
Method: as §5

[21] = target: T1, human PCSK9 with a C-terminal …; test: SPR (Biacore), 37 °C; antibody captured on anti-human Fc surface, hPCSK9-mmH injected (3.125-50 nM); association at pH 7.4, dissociation at pH 7.2; remark: listed apart in the source
Method: as §4, §5

[22] = target: T1, human PCSK9 with a C-terminal …; test: SPR (Biacore), 37 °C; antibody captured on anti-human Fc surface, hPCSK9-mmH injected (3.125-50 nM); association at pH 7.4, dissociation at pH 7.4; remark: listed apart in the source
Method: as §5

[23] = target: T1, human PCSK9 with a C-terminal …; test: SPR (Biacore), 37 °C; antibody captured on anti-human Fc surface, hPCSK9-mmH injected (3.125-50 nM); association at pH 7.4, dissociation at pH 6.0; remark: listed apart in the source
Method: as §5

[24] = target: T1, human PCSK9 with a C-terminal …; test: blocking ELISA, hPCSK9-mmH vs coated hLDLR EGFA-hFc; non-blocking at pH 5.75
Method: as §2, §3

[25] = target: T1, human PCSK9 with a C-terminal …; test: SPR (Biacore), 37 °C; antibody captured on anti-human Fc surface, hPCSK9-mmH injected (3.125-50 nM); association at pH 7.4, dissociation at pH 7.2; remark: listed apart in the source
Method: as §5

[26] = target: T1, human PCSK9 with a C-terminal …; test: SPR (Biacore), 37 °C; antibody captured on anti-human Fc surface, hPCSK9-mmH injected (3.125-50 nM); association at pH 7.4, dissociation at pH 5.75; remark: listed apart in the source
Method: as §5

[27] = target: T1, human PCSK9 with a C-terminal …; test: cell-based or functional assay; remark: listed apart in the source
[28] = target: T2, recombinant cynomolgus monkey PCSK9 …; test: cell-based or functional assay; remark: listed apart in the source
[29] = target: T3, human PCSK9 with a C-terminal myc-myc …; test: cell-based or functional assay; remark: listed apart in the source
[30] = target: T1, human PCSK9 with a C-terminal …; test: blocking ELISA pH 5.75; actual obtained value, below theoretical bottom of the assay
Method: as §2, §3

[31] = target: T1, human PCSK9 with a C-terminal …; test: SPR (Biacore), 37 °C; antibody captured on anti-human Fc surface, hPCSK9-mmH injected (3.125-50 nM); association at pH 7.4, dissociation at pH 6.0; remark: listed apart in the source
Method: as §5

[32] = target: T1, human PCSK9 with a C-terminal …; test: blocking ELISA pH 7.2; actual obtained value, below theoretical bottom of the assay
Method: as §2, §3

[33] = target: T1, human PCSK9 with a C-terminal …; test: SPR (Biacore), 37 °C; antibody captured on anti-human Fc surface, hPCSK9-mmH injected (3.125-50 nM); association at pH 7.4, dissociation at pH 7.4; remark: listed apart in the source
Method: as §5

Binder	IC50 [1] [nM]	IC50 [3] [nM]	IC50 [4] [nM]	Kd [5] [nM]	koff [5] [s⁻¹]	kon [5] [M⁻¹ s⁻¹]	t½ [5] [min]	Kd [10] [nM]	koff [10] [s⁻¹]	kon [10] [M⁻¹ s⁻¹]	t½ [10] [min]	IC50 ratio (pH 5.75/pH 7.2) [15]	KD ratio pH 6.0/pH 7.4 [16]	ka ratio pH 6.0/pH 7.4 [16]	kd ratio pH 6.0/pH 7.4 [16]	t½ ratio pH 6.0/pH 7.4 [16]	IC50, LDL uptake in HepG2 cells, 100 nM hPCSK9-mmH [18] [nM]	also measured
B1	0.395	1.75	0.319	1.06	8.98e-05	84700	129	7.04	0.00075	107000	15.4	5.5	6.64	1.26	8.35	0.12	32	Kd [2]: 9.59 nM; t½ [2]: 3.4 min; t½ [6]: 35 min; t½ (dissociative half-life) [7]: 3.5 min; t½ (dissociative half-life) [8]: 36 min; t½ (dissociative half-life) [9]: 2.8 min; IC50 [11]: 0.349 nM; IC50, LDL uptake in HepG2 cells, 50 nM MfPCSK9-mmH [12]: 12.7 nM; IC50, LDL uptake in HepG2 cells, 2 nM hPCSK9-D374Y-mmH [13]: 2.7 nM; Kd [14]: 2.21 nM; t½ (dissociative half-life) [17]: 42 min; KD ratio pH 5.75/pH 7.2 [19]: 4.34; t½ ratio pH 5.75/pH 7.2 [19]: 0.1
B2	0.461	–	0.354	2.68	0.000278	104000	41.5	42.1	0.0079	186000	1.5	–	15.7	1.79	28.4	0.04	–	t½ (dissociative half-life) [20]: 0.1 min; t½ (dissociative half-life) [21]: 8.9 min; t½ (dissociative half-life) [22]: 8.7 min; t½ (dissociative half-life) [23]: 0.2 min; IC50 ratio (pH 5.75/pH 7.2) [24]: > 500
B3	–	< 0.125	< 0.125	0.616	0.000308	499000	37.6	0.25	0.000162	649000	71.1	1.8	0.41	1.3	0.53	1.89	31	t½ (dissociative half-life) [25]: 13.8 min; t½ (dissociative half-life) [26]: 27.8 min; IC50, LDL uptake in HepG2 cells, 50 nM hPCSK9-mmH [27]: 7.8 nM; IC50, LDL uptake in HepG2 cells, 50 nM MfPCSK9-mmH [28]: 10.3 nM; IC50, LDL uptake in HepG2 cells, 2 nM hPCSK9-D374Y-mmH [29]: 2 nM; IC50 [30]: 0.113 nM; t½ (dissociative half-life) [31]: 13 min; IC50 [32]: 0.064 nM; t½ (dissociative half-life) [33]: 7 min
